Patent US8440629B2, “Cyclic receptor-associated protein (RAP) peptides” (Raptor Pharmaceuticals Inc., priority 2007, dated 2013)
Where a chain is given by its changes, count along the chain named. Names and notes keep the numbering of the source. One block for each molecule: values may come before it.

Key:
VLDLR CR6-8 = target: T1, VLDLR CR6-8 (Homo sapiens, UniProt P98155); assay: Solid phase binding assay; conditions: 80 nM ligand, FIG. 7
T1 construct: made in house; host or cells: E. coli BL21(DE3) CodonPlus-RIPL, pET30(+)a
Method: (§1) All expression constructs were sequenced to verify insert sequences and the junctions with the expression vector. Each plasmid was then used to transform BL21(DE3) CodonPlus-RIPL™ cells (Stratagene). Expression of the CR proteins was induced in logarithmic growth-phase cells grown in LB supplemented with 34 μg/mL chloramphenicol, 12.5 μg/mL tetracycline and 15 μg/mL kanamycin by addition of 2 mM IPTG, followed by reduction in incubator temperature to 32° C. and incubation for 4 hours with agitation at […]. Cells were pelleted and resuspended, at 3.5% of the initial culture volume in 10 mM Tris-HCl pH 8, 100 mM NaH2PO4, 8M Urea. Resuspended cells were then frozen in liquid nitrogen, rapidly thawed to 37° C. and sonicated for 10 seconds at an amplitude setting of 60 using a Cole-Parmer CP-130 ultrasonic processor connected to a 3 mm probe. This procedure was repeated three times to effect complete lysis of the cells. Lysates were clarified by spinning twice at 10,000×g in a Sorvall RC-5 centrifuge for 20 minutes at 15° C. Ni-NTA columns (Qiagen Superflow™, 1.5 mL packed bed) were used to purify the CR proteins. Briefly, the resin was equilibrated with two column volumes of lysis buffer. The clarified lysate was then supplemented to 20 mM with imidazole and incubated with the equilibrated Ni-NTA resin overnight at 4° C. The flow-through was discarded. Columns were washed once with one column volume of lysis buffer and then three times with one column volume of TBS pH 8 supplemented with 20 mM imidazole. CR-loaded beads were then removed from the column and CR proteins eluted by incubating at room temperature for 30 minutes with one column volume of the same buffer containing 200 mM imidazole. This step was repeated once and the eluates pooled. Eluted CR protein solutions were then supplemented to 2 M urea, 10 mM CaCl2 and 5 mM DTT. Purified, denatured CR protein solutions were transferred to 3,500 MWCO Slide-A-Lyzer™ (Pierce) cassettes and sequentially dialyzed against a 200-fold excess of 50 mM Tris-HCl pH 8.5, 10 mM CaCl2, 1 mM reduced glutathione, 0.5 mM oxidized glutathione at room temperature overnight and then against TBS supplemented with 5 mM CaCl2 at 4° C. overnight. Protein concentrations were determined by Bradford assay and purity confirmed by SDS-PAGE with Coomassie Brilliant Blue staining.
(§2) Purified, refolded CR protein (1 μg) was bound to Nunc Maxisorp™ 96-well plates in TBS pH 8 supplemented with 5 mM CaCl2 (TBSC) overnight at 4° C. Wells were washed with TBSC and then blocked with TBSC containing 2% bovine serum albumin (BSA). RAP ligands were then incubated with the immobilized receptor at a range of concentrations for 2 hours in the above blocking buffer supplemented with 0.05% Tween-20 at room temperature. Control wells contained no added ligand. As an additional control, to determine whether the absence of calcium affected binding, 10 mM EGTA was included in the incubation medium for some samples. Wells were washed with TBSTC and bound ligands detected with polyclonal anti-RAP (BP41/42, 1:1,000, BioMarin). Excess primary antibody was removed and wells washed before incubation with the secondary antibody, HRP-conjugated goat anti rabbit IgG (Bio-Rad). After washing, TMB substrate solutions (Bio-Rad) were added to detect HRP. Color development was stopped with 1N HCl. Absorption at 450 nm was measured with a microplate spectrophotometer (Molecular Devices). Data were plotted and Kd values derived by non-linear regression with the assumption of single-site binding (GraphPad Prism).
(§3) From the large number of CR pairs with unique combinations of amino acids at A, C, A′ and C′ within the calcium-binding loop of each CR, CR pairs or triplets were selected to test their binding to RAP d3 (FIG. 2). An additional pair derived from the FDC-8D6 protein was tested, designated 8D6 CR12, having the sequence ([…]) (SEQ ID NO: 91). […]

VLDLR CR78 = target: T2, VLDLR CR78 (Homo sapiens, UniProt P98155); assay: Solid phase binding assay
T2 construct: a CR pair from VLDLR (CR78); made in house; host or cells: E. coli BL21(DE3) CodonPlus-RIPL, pET30(+)a
Method: as §1, §2, §3

MAT CR23 [1] = target: T3, MAT CR23 (Homo sapiens, UniProt Q9Y5Y6); assay: Solid phase binding assay; conditions: 80 nM ligand, FIG. 7
T3 construct: made in house; host or cells: E. coli BL21(DE3) CodonPlus-RIPL, pET30(+)a
T3 sequence (Q9Y5Y6 487-566): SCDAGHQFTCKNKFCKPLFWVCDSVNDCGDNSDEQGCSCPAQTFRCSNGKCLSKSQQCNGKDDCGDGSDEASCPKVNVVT
Method: as §1, §2, §3

MAT CR12 = target: T4, MAT CR12 (Homo sapiens, UniProt Q9Y5Y6); assay: Solid phase binding assay; conditions: 80 nM ligand, FIG. 7
T4 construct: termed MAT CR12 (ST14 CR12), amino acids 452-524; made in house; host or cells: E. coli BL21(DE3) CodonPlus-RIPL, pET30(+)a
T4 sequence (Q9Y5Y6 452-524): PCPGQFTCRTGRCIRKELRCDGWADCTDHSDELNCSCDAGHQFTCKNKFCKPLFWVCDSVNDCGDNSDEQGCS
Method: as §1, §2, §3

the other CR pairs = assay: Binding at 80 nM to fourteen CR pairs or triplets (FIG. 7); parameters: species or system human; conditions: 80 nM ligand
Method: RAP d3, MegaRAP1 d3, VRAP2 d3, MatRAP1 d3 and MatRAP2 d3 were each incubated at 80 nM concentrations with LRP1 CR3-5, LRP6 CR12, LRP6 CR23, LRP6 CR1-3, LRP2 CR89, LRP2 CR2728, LRP2 CR3031, LRP2 CR3435, LRP2 CR34-36, VLDLR CR78, VLDLR CR6-8, MAT CR12, MAT CR23 and MAT CR34. Samples were tested twice, in duplicate, and values combined. Means and standard deviations were then calculated. Blank values obtained from wells incubated in the absence of ligand were used to correct absorbance data.
Purified, refolded CR protein (1 μg) was bound to Nunc Maxisorp™ 96-well plates in TBS pH 8 supplemented with 5 mM CaCl2 (TBSC) overnight at 4° C. Wells were washed with TBSC and then blocked with TBSC containing 2% bovine serum albumin (BSA). RAP ligands were then incubated with the immobilized receptor at a range of concentrations for 2 hours in the above blocking buffer supplemented with 0.05% Tween-20 at room temperature. Control wells contained no added ligand. […] Wells were washed with TBSTC and bound ligands detected with polyclonal anti-RAP (BP41/42, 1:1,000, BioMarin). […] Absorption at 450 nm was measured with a microplate spectrophotometer (Molecular Devices). […]
The apparent dissociation constant for binding of VRAP1 d3 to VLDLR CR78 was determined to be 44±9 nM. […]

[2] = tested on: wild-type CHO-K1 cells expressing LRP1; assay: Endocytosis-dependent toxicity assay (MTT); format: cell-based, Chinese hamster; conditions: 100 nM, 48 hours
Method: (§4) In order to determine the ability of the cyclic RAP peptides to bind receptor on the surface of a cell, binding was assessed in the presence of cultured cell lines. To determine whether cyclic RAP peptides could be bound and endocytosed by full-length LRP1 expressed on cells in culture, an endocytosis-dependent toxicity assay was used. Two cell-lines were used, Chinese hamster ovary CHO-K1 cells expressing only one high-affinity RAP-receptor, LRP1, and a mutant CHO-K1 lacking LRP1 expression was used as control. Cells were cultured in BioWhittaker UltraCHO medium (Lonza, Basel, Switzerland) supplemented with 2.5% fetal bovine serum. Cells were seeded in 12-well tissue culture plates. The biotinylated mRAPc was combined with equimolar amounts of a conjugate between streptavidin and the bacterial toxin saporin (ZAP, Advanced Targeting Systems, San Diego, Calif.). The mixture was diluted in MEM without phenol red (Mediatech, Manassas, Va.) supplemented with 10% FBS to 100 nM. Conjugated mRAPc (100 nM) and control agents (mRAPc alone, 100 nM, streptavidin-saporin alone, 100 nM, saporin alone, 1 mM) were cultured with confluent cells and cell death was assayed 48 hours later via MTT assay (Invitrogen, San Diego, Calif.).

[3] = tested on: LRP-deficient CHO-K1 cells; assay: Endocytosis-dependent toxicity assay (MTT); format: cell-based, Chinese hamster; conditions: 100 nM, 48 hours
Method: as §4

MAT CR23 [4] = target: T3, MAT CR23; assay: Binding of sequentially-truncated MatRAP1 (FIG. 9)
Method: as §2, with “Prism). […]” for “Prism).”

B2: MatRAP1: RAP d3 variant selected on MAT CR23: E251G, K256R, K270W (protein)
chain: LDRLRRVSHQGYSTEAEFEEPRVIDLWDLAQSANLTDKELEAFREELKHFGAKIERHNHYQKQLEIAHEWLRHAESVGDGERVSRSREKHALLEGRTKELGYTVKKHLQDLSGRISRAR
binding at 80 nM (in words) (MAT CR23 [1]): bound
binding at 80 nM (in words) (MAT CR12): bound
binding at 80 nM to the other CR pairs (in words) (the other CR pairs): not appreciably

B3: mRAPc: minimized RAP d3, E241C, A242G, R314G, I315C, disulfide-cyclized, N-terminal biotin-GGSGG (SEQ ID NO: 99) (peptide)
chain: CGFREELKHFEAKIEKHNHYQKQLEIAHEKLRHAESVGDGERVSRSREKHALLEGRTKELGYTVKKHLQDLSGGC
modifications: disulfide cyclization; N-terminal biotin-GGSGG
effect on cell survival (in words) [2]: no effect
effect on cell survival (in words) [3]: no effect

B4: MatRAP1 N-42: MatRAP1 with 42 amino acids removed from the N-terminus (protein)
chain: FREELKHFGAKIERHNHYQKQLEIAHEWLRHAESVGDGERVSRSREKHALLEGRTKELGYTVKKHLQDLSGRISRAR
increase in binding affinity over the full-length d3 variant (MAT CR23 [4]): 3 fold

Now from value to molecule:

binding at 80 nM (in words) (VLDLR CR6-8): bound
binding at 80 nM (in words) (VLDLR CR78; 80 nM ligand, FIG. 7): bound
Kd (VLDLR CR78; solid-phase assay, VLDLR CR78, read-out: apparent dissociation constant (Kd)): 44 ± 9 nM
B1: VRAP1 d3: RAP d3 variant selected on VLDLR CR6-8: R205S, E251R, K256L, K270E, R296L, G313D (protein)
chain: B2 chain with R5S, G51R, R56L, W70E, R96L, G113D

binding at 80 nM (in words) (MAT CR23 [1]): bound
binding at 80 nM (in words) (MAT CR12): bound
binding at 80 nM to the other CR pairs (in words) (the other CR pairs): not appreciably
B5: MatRAP2: RAP d3 variant selected on MAT CR34: S232P, E239G, E246G, E251L, K256P, I266T, A267V, H268R, K270P, H273Y, R287H, H290Y, K298R, S312F (protein)
chain: LDRLRRVSHQGYSTEAEFEEPRVIDLWDLAQPANLTDKGLEAFREGLKHFLAKIEPHNHYQKQLETVREPLRYAESVGDGERVSRSHEKYALLEGRTRELGYTVKKHLQDLFGRISRAR
